This is an account of results in PMC3610751.

What is called Kd is the constant that tells how readily two partners part at equilibrium. As usually defined, the stoichiometry N is a count of units in the complex or per binding partner.

In series [1] the test system is NP isolated from virus (Influenza A virus (strain for filter assay not stated; A/PR/8/34 used for MS)). The series is described as follows: filter binding. As to conditions: running buffer with 300 mM NaCl and 0.025% P20, 25 C, conditions not given.
In series [2] the test system is wt NP, recombinant (filter binding) (Influenza A virus (A/WSN/33, H1N1)). The series is described as follows: filter binding. As to conditions: running buffer with 300 mM NaCl and 0.025% P20, 25 C, conditions not given.
In series [3] the target is wild type nucleoprotein of influenza A virus H1N1 strain A/WSN/33 (influenza A virus H1N1 strain A/WSN/33). The series is described as follows: crystal structure.

In the case of 81 nt panhandle RNA, the Kd in series [1] and in series [2] was 30 nM throughout.

“wild type nucleoprotein of influenza A virus H1N1 strain A/WSN/33 (natural protein)” had a stoichiometry N in series [3] of 3.
